From paper doi:10.1101/2023.04.27.535981, “Development of constrained peptide inhibitors targeting an oncogenic E3 ubiquitin ligase” (bioRxiv, 2023)
Square brackets hold non-standard residues; d marks the D form. Ends that are not written are not given here. pT = C[C@@H](OP(=O)(O)O)[C@H](N)C(=O)O; Ahx = NCCCCCC(=O)O

Biological target: T1, Cks1-Skp2-Skp1 complex (GST-Skp2-Skp1-His-Cks1) (human | , UniProt Q13309 1-424; P63208 1-163; P61024 1-79)
T1 construct: Skp2, human; GST-Skp2 fusion from a dicistronic pGEX 4T1 plasmid with Skp1; Skp1, human; second cistron of the pGEX 4T1 GST-Skp2/Skp1 plasmid; Cks1, full length (1-79); The design was based on PDB 2AST, whose constructs may differ; also called Skp1-Skp2-Cks1 complex; Skp2-Skp1-Cks1 complex; source: E. coli C41; GST-Skp2-Skp1 (glutathione Sepharose, SEC) and His-Cks1 (Ni-NTA, SEC) purified, mixed …
Assay: fluorescence polarisation; direct FP; protein serially diluted 1:2 (12 points, triplicate) and mixed with 20 nM TAMRA-labelled peptide; SEC buffer (20 mM Tris-HCl pH 7.5, 150 mM NaCl, 1 mM DTT) with 0.01 % Tween-20; 30 min at room temperature
Conditions: both partners purified

T1 sequence (Q13309 whole entry, chain 1 of 3, the tested form may be a part): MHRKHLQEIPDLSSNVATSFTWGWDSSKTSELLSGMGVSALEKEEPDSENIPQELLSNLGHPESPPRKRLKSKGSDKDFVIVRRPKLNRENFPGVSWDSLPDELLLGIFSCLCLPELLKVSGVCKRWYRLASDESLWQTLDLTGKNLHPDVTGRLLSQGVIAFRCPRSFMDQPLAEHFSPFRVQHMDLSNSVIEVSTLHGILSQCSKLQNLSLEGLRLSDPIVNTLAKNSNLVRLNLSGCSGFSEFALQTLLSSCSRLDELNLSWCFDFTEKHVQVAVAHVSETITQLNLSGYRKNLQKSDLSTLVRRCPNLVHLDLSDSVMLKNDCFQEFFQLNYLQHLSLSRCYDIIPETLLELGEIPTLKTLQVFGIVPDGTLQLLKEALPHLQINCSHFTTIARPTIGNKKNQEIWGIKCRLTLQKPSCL
T1 sequence (P63208 whole entry, chain 2 of 3, the tested form may be a part): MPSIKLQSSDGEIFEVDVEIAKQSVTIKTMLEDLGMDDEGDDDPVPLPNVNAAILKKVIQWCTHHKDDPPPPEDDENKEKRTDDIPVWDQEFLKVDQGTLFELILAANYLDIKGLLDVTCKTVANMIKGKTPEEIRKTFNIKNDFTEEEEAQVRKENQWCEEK
T1 sequence (P61024 whole entry, chain 3 of 3, the tested form may be a part): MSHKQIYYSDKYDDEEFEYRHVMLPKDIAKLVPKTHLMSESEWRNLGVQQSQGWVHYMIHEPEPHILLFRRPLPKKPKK

Kd: 2780 ± 190 nM
B1: TAMRA-labelled 10-residue phosphorylated p27 peptide (TAMRA-Ahx-AGSVEQT(phos)PKK) (peptide)
peptide: {TAMRA-Ahx}-AGSVEQ[pT]PKK
notes: p27, amino acids 181-190; also called TAMRA-labelled p27 peptide; TAMRA-labelled unconstrained p27 peptide; source: synthetic peptide
